K0.5 data for one protein are collected here from publication PMC2676678.

Holding throughout (conditions): holding potential -50 mV; Na+ medium (about 96 mM Na+); Hill coefficient about 1
Substrate in series [1]: N[C@@H](CS)C(=O)O
The class given is cell-based, Drosophila melanogaster.

Substrate in series [2]: N[C@@H](Cc1ccc(O)c(O)c1)C(=O)O
It counts as cell-based, Drosophila melanogaster.

Substrate in series [3]: N[C@@H](Cc1ccccc1)C(=O)O
It counts as cell-based, Drosophila melanogaster.

Substrate in series [4]: N[C@@H](Cc1c[nH]cn1)C(=O)O
The class given is cell-based, Drosophila melanogaster.

Substrate in series [5]: CSCC[C@@H](N)C(=O)O
It counts as cell-based, Drosophila melanogaster.

Substrate in series [6]: CSCC[C@H](N)C(=O)O
It counts as cell-based, Drosophila melanogaster.

Substrate in series [7]: N[C@H](CS)C(=O)O
The class given is cell-based, Drosophila melanogaster.

Substrate in series [8]: N[C@@H](Cc1ccc(O)cc1)C(=O)O
It counts as cell-based, Drosophila melanogaster.

Substrate in series [9]: N[C@H](Cc1ccc(O)cc1)C(=O)O
The class given is cell-based, Drosophila melanogaster.

Substrate in series [10]: CC(C)C[C@H](N)C(=O)O
Kind of series: cells, lysate or membranes.

Substrate in series [11]: CC(C)C[C@@H](N)C(=O)O
The series is described as follows: cells, lysate or membranes.

Substrate in series [12]: CC[C@H](C)[C@H](N)C(=O)O
Kind of series: cells, lysate or membranes.

Substrate in series [13]: O=C(O)[C@H]1CCCN1
Kind of series: cells, lysate or membranes.

Substrate in series [14]: N[C@H](Cc1ccccc1)C(=O)O
The series is described as follows: cells, lysate or membranes.

Substrate in series [15]: N[C@@H](CO)C(=O)O
Kind of series: cells, lysate or membranes.

Substrate in series [16]: C[C@H](N)C(=O)O
The series is described as follows: cells, lysate or membranes.

Substrate in series [17]: N[C@H](CO)C(=O)O
Kind of series: cells, lysate or membranes.

Substrate in series [18]: O=C(O)[C@@H]1CCCN1
The series is described as follows: cells, lysate or membranes.

Substrate in series [19]: CC(C)[C@@H](N)C(=O)O
Kind of series: cells, lysate or membranes.

Substrate in series [20]: CC(C)[C@H](N)C(=O)O
The series is described as follows: cells, lysate or membranes.

B1: DmNAT1 (Drosophila melanogaster) (protein)
chain: MELKGVQPSNGSSNGSGNGATNAASTEKTDAEKPTAERTNWGNGLEFLMSCISVSVGLGNVWRFPFTAYENGGGAFLIPYIIVLFLIGKPMYYLEMIMGQFTSQGTVKIWSVVPGFVGVGYGQAFGTICIISYYSSLLALTLYYLFVSFQSELPWSYCRDEWTNCVNSRPQEYVDNLLTGVSLANESARNLSGIVANDETEKLQSSSELYFLNVVIKEKLDISDGVGDPDWKLTLALFVAWVVIFLVIMRGVKSSGKAAYFLALFPYVVLFVLLIRAVTLEGARDGILFFLEPQWGELLNPTVWKEAVVQCFFSLAVGSGPIIMFASYNRFDHGIYRDAMIVTTLDTLTSLLGGITIFAILGNLAHNLQIENIRDVVRSGTGLAFISYPDAISKFQAVPQLFSVLFFFMLFVLGIGSIVALQSTIVTIICDQFKGWKYWKVALTTSVCGFLMGLVYVTPGGQWILTLVDFYGGTYVVFILAIFELAGIVWVYGLQNFCDDIEFMCNRRVSLYWRVCWSFFTPVMMIIIFIYSMVTIEPIKYSELYFPEAANIAGWLLFAIGAAQFPLWGLWYISRHPQGTYWKSLKASLKPSDRWGPANPEIRREWVIFKNQKAAQRATQKDTSKLGFFWRKVANFCGSNK
In the case of B1, the K0.5 turned out to be 199.1 ± 18.8 µM in [1]; 242.3 ± 57.9 µM in series [2]; 58.3 ± 5.3 µM in series [3]; 188.5 ± 37.9 µM in series [4]; 24.7 ± 9.9 µM in series [5]; 39.8 ± 12.7 µM in series [6]. Moreover, the K0.5 in [7] was found to be 141.0 ± 28.6 µM; in series [8] it was 96.8 ± 17.9 µM; in series [9], 64.3 ± 15.3 µM; in [10], 126.2 ± 39.8 µM; in [11] it was 92.2 ± 34.8 µM; in [12] it was 130.1 ± 37.5 µM. Also, the K0.5 stood at 142.4 ± 38.5 µM in series [13]; 55.2 ± 10.3 µM in [14]; 119.7 ± 18.6 µM in series [15]; 255.6 ± 76.8 µM in [16]; 128.1 ± 21.3 µM in [17]; 127.6 ± 44.9 µM in series [18]. Also, the K0.5 was 170.2 ± 38.3 µM in [19] and 96.8 ± 20.2 µM in [20].
